Results on one molecule are retold here after article PMC12440807.

The target of this data set is RNA polymerase II;RECQL5 (Sus scrofa domesticus?;Homo sapiens, UniProt A0A8D1DPV6;A0A0B8RVL1;P19387;O15514;I3LSI7;P61218;P62487;P52434;P36954;P52435;P6 …, |). Put plainly: cryo-EM; phosphorylated Pol II; 2.8 A; Mg, Zn in model. To be noted: protein: native;recombinant; tags: none;His6-MBP, TEV-cleaved; copies: 1;1;1;1;1;1;1;1;1;1;1;1;1.
Chain of RNA polymerase II;RECQL5 (O94762 whole entry, one chain of several): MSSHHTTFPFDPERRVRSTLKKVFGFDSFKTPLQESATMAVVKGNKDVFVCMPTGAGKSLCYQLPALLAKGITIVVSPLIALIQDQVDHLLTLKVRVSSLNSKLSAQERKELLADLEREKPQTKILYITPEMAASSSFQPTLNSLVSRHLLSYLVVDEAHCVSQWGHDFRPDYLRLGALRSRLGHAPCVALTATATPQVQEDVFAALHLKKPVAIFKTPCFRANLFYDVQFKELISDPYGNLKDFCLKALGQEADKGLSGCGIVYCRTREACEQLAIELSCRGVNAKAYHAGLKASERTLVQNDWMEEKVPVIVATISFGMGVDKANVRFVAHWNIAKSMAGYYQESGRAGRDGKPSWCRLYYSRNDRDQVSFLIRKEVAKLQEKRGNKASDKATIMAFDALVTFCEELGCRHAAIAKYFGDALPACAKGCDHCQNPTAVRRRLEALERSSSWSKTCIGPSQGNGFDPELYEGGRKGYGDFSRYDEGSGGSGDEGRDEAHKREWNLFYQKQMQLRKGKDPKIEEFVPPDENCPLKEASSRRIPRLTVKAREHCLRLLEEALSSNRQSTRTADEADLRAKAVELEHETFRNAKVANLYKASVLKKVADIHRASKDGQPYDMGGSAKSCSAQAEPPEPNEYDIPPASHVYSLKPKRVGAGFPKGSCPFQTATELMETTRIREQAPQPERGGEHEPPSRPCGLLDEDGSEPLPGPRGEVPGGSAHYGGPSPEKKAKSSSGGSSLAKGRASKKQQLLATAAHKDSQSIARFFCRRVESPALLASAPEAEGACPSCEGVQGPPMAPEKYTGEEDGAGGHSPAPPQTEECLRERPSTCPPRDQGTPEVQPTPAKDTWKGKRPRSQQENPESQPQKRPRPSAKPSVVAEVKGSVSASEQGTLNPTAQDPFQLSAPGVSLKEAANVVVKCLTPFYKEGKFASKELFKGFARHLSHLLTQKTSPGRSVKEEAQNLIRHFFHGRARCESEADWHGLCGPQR

B1: EC DNA-RNA scaffold (mixed)
DNA 1: GCTCCCAGCTCCCTGCTGGCTCCGAGTGGGTTCTGCCGCTCTCAATGG
DNA 2: CCATTGAGAGCGGCCCTTGTGTTCAGGAGCCAGCAGGGAGCTGGGAGC
RNA: GAGAGGGAACCCACU
For B1, the binding result was “binds”.
